Source: US20030170807A1 (Johns Hopkins, published 2003)

T1: GKAP 1, native, from rat brain extracts (rat, UniProt P97836 1-992)
T1 construct: mature
T1 sequence (looked up): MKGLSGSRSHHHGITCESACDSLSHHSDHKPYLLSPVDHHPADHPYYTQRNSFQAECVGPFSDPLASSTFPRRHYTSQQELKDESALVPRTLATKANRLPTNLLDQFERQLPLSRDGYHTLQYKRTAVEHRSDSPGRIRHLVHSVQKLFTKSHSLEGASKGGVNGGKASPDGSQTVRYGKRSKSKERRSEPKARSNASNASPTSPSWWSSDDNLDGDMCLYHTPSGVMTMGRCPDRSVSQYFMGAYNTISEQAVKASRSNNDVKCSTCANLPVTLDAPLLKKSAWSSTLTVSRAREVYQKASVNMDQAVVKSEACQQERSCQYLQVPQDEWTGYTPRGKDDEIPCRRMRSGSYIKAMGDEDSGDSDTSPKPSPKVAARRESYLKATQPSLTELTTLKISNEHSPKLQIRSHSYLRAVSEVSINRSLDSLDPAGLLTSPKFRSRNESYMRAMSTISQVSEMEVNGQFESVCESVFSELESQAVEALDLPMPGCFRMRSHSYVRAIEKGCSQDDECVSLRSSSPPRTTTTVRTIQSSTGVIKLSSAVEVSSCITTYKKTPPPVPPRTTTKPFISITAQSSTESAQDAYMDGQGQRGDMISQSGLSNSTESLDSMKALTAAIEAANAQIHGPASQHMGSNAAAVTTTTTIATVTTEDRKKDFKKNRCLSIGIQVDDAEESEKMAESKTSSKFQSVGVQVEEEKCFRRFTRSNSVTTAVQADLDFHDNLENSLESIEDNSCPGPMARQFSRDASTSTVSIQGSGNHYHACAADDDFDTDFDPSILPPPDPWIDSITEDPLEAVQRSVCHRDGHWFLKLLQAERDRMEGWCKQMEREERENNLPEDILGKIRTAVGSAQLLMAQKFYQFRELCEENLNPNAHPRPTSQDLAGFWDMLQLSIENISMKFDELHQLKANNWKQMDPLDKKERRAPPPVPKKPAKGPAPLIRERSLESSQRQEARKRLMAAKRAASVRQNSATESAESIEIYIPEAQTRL


Key:
[1] = biological target: mGluR of mouse cerebellar Purkinje cells (mouse) (UniProt P97772); assay: cell-based or functional assay
[2] = biological target: T1, GKAP 1, native, from rat brain extracts; assay: GST pull-down from rat brain extracts

Chain of mGluR of mouse cerebellar Purkinje cells (mouse) (P97772 21-1199): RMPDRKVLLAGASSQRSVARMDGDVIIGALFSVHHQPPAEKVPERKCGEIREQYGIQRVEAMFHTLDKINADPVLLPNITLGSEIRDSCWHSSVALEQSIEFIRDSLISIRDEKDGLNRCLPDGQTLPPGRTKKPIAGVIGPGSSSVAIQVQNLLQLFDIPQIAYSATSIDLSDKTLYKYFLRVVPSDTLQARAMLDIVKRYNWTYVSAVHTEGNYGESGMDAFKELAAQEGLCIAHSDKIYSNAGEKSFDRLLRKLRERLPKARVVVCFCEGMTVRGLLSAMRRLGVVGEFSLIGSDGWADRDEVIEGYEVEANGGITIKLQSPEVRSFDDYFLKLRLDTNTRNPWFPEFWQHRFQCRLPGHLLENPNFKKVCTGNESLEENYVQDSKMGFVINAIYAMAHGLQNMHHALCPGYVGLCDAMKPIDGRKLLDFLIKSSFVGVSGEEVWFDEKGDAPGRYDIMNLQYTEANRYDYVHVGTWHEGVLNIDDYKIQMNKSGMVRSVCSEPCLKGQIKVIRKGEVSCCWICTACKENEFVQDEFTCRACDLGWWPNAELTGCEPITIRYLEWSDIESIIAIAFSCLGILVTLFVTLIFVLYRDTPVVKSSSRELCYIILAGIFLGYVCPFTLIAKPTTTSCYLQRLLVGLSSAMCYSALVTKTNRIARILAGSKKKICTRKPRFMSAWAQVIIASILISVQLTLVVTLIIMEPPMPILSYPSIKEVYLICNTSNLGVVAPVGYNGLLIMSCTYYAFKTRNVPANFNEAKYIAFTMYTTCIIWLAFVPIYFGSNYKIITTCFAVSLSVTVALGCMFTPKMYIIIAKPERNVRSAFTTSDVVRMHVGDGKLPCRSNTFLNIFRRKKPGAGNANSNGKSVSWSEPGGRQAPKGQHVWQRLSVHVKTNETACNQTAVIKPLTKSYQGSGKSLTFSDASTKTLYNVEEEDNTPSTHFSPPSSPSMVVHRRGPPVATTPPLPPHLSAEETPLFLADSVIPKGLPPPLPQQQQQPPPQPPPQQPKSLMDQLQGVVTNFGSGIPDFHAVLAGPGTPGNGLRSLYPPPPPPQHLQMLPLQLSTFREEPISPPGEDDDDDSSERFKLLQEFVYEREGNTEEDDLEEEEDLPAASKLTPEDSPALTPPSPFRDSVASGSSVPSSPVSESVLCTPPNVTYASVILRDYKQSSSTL

mGluR-evoked Ca+2 response, amplitude [1] [nM] | mGluR-evoked Ca+2 response, latency [1] [s] | binding result [2] | Molecule
170 | 10.5 | – | IEG form of Homer 1: 186 amino acid amino-terminal fragment of Homer 1b (pRK5 Homer 1 IEG) (from UniProt Q9Z2Y3 1-198)
– | – | no binding | GST-GKAP(carboxy-terminal): carboxy-terminal 76 amino acids of GKAP1a fused to GST (other, UniProt P97836-5 591-666, looked up, domain: carboxy-terminal 76 amino acids; not shown: glutathione-S-transferase, fusion partner) MDPLDKKERRAPPPVPKKPAKGPAPLIRERSLESSQRQEARKRLMAAKRAASVRQNSATESAESIEIYIPEAQTRL
